Test [1] addresses His-DDX3X^414-582 (human) (UniProt O00571). Kind of test: fluorescence thermal shift (FTS) assay; FTS with varying concentrations of peptide; melting temperatures fitted to single site or simple cooperative ligand binding, preferred model chosen.
Test [2] shares this target. Kind of test: fluorescence thermal shift (FTS) assay; 10 µM His-DDX3X^414-582, 20 µM peptide, 50 mM HEPES pH 8, 10x SYPRO-Orange; change of melting temperature.

Among the data in PMC5818060 are Kd and increase of the melting temperature (Tm) of His-DDX3X^414-582 values, retold here.

Chain of His-DDX3X^414-582 (human) (O00571 414-582): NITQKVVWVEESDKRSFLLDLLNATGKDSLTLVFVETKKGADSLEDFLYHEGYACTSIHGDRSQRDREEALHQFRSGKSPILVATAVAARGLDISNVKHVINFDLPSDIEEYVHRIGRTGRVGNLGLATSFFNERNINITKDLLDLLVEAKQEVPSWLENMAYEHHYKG

Take “CK1δ-derived peptide δ-41 (from UniProt P48730 41-55)”: the Kd in test [1] came out at 5.49 µM. Moreover, the increase of the melting temperature (Tm) of His-DDX3X^414-582 in test [2] came out at 5 °C.

As usually defined, the Kd is the equilibrium constant for the complex coming apart.
